T1: human ACTH 1-39 (human, not fully specified; N-terminal biotin in the ELISA and HTRF binding assays (p-1487, p-1488); 125I on Tyr23 in Example 9 (p-1542); unlabelled in SPR. Letters unchanged.)
T1 peptide: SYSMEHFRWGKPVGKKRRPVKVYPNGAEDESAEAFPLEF

T2: human alpha-MSH (ACTH 1-13) (human, not fully specified; ends and bridges not checked)
T2 peptide: Ac-SYSMEHFRWGKPV-NH2

T3: ACTH 1-24 (human)
T3 peptide: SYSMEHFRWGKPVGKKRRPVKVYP


How the values were obtained:
human ACTH 1-39 [1] = molecular target: T1, human ACTH 1-39; assay: cell-based or functional assay
human ACTH 1-39 [2] = molecular target: T1, human ACTH 1-39; assay: cell-based or functional assay
human ACTH 1-39 [3] = molecular target: T1, human ACTH 1-39; assay: cell-based or functional assay
[4] = molecular target: T2, human alpha-MSH (ACTH 1-13); assay: SPR (ProteOn XPR36), antibody immobilized
Method: (§1) Antibody was immobilized to the surface of general amine coupling (GLC or GLM) Chips (Bio-Rad). […] Surfaces were regenerated between analyte queries using 10 mM glycine at pH 2.0.

human ACTH 1-39 [5] = molecular target: T1, human ACTH 1-39; assay: cell-based or functional assay
ACTH 1-24 = molecular target: T3, ACTH 1-24; assay: cell-based or functional assay
human ACTH 1-39 [6] = molecular target: T1, human ACTH 1-39; assay: SPR (ProteOn XPR36), antibody immobilized
Method: as §1

| Binder | IC50, ACTH-induced cAMP reporter, MC1R cells (human ACTH 1-39 [1]) [nM] | IC50, ACTH-induced cAMP, MC2R cells (human ACTH 1-39 [2]) [nM] | IC50, ACTH-induced cAMP, MC3R cells (human ACTH 1-39 [3]) [nM] | IC50, ACTH-induced cAMP, MC4R cells (human ACTH 1-39 [3]) [nM] | IC50, ACTH-induced cAMP, MC5R cells (human ACTH 1-39 [3]) [nM] | kon [4] [M⁻¹ s⁻¹] | IC50, ACTH-induced cortisol, Y1 cells (human ACTH 1-39 [5]) [nM] | IC50, ACTH 1-24 induced cAMP, MC2R cells (ACTH 1-24) [nM] | kon (human ACTH 1-39 [6]) [M⁻¹ s⁻¹] |
| --- | --- | --- | --- | --- | --- | --- | --- | --- | --- |
| Ab7 (antibody, V domains shown, Full-length rabbit/human chimeric antibody, HEK-293) VH: QSVEESGGRLVTPGTPLTLTCTVSGFSLSSYAMSWVRQAPGEGLEWIGIISDSGSTYYASWAKGRFTISKTSTTVDLRITSPTTEDTATYFCAREPEYGYDDYGDWVSDLWGQGTLVTVSS VL: DIVMTQTPASVEAAVGGTVTIKCQASQSISDYLSWYQQKPGQPPKLLIYRASTLASGVPSRFKGSGSGTQFTLTISDLECADAATYYCQSYYYSSSITYRNAFGGGTEVVVKR | 1.29 | 0.09 | 64.2 | 49.7 | 1100 | 130000 | 2.49 |  |  |
| Ab6 (antibody, V domains shown) VH: QSVEESGGRLVTPGTPLTLTCTVSGFSLTDYAMSWVRQAPGEGLEWIGIISDSGSTYYASWAKGRFTFSKTSTTVDLRITSPTTEDTATYFCAREPEYGYDEYGDWVSDLWGPGTLVTVSS VL: DIVMTQTPASVEAAVGGAVTIKCQATQSIGNNLAWYQQKPGQPPKLLIYRASTLASGVPSRFKGSGSGTEFTLTISDLECADAATYYCQSYYYSSSITYHNAFGGGTEVVVKR | 1.04 | 0.03 | 62.8 | 55.2 | 1000 |  | 1.44 | 0.1 |  |
| Ab5 (antibody, V domains shown) VH: QSVEESGGRLVTPGTPLTLTCTVSGFSLSSYAMSWVRQAPGEGLEWIGIISDSGSTYYASWAKGRFTISKTSTTVDLKITSPTTEDTATYFCAREPEYGYDDYGDWVSDLWGQGTLVTVSS VL: DIVMTQTPASVSEPVGGTVTIKCQASQSISSYLSWYQQKPGQPPKLLIYRASTLASGVPSRFKGSGSGTQFTLTISDLECADAATYYCQSYYYSSSITYRNAFGGGTEVVVKR | 1.96 | 0.11 | 58.1 | 43.4 | 1000 |  | 3.49 |  |  |
| Ab9 (antibody, V domains shown) VH: QSVEESGGRLVTPGTPLTLTCTVSGFSLNSYAMSWVRQAPGEGLEWIGIISDSGRTYYASWAKGRFTISKTSTTVDLKITSPTTEDTATYFCAREPEYGYDDYGDWVSDLWGPGTLVTVSS VL: DVVMTQTPASVEAAVGGTVTIKCQASQSISSYLSWYQQKPGQPPKLLIYRASTLASGVPSRFKGSGSGTQFTLTISDLECADAATYYCQSYYYSSSITYRNAFGGGTEVVVKR |  | 0.12 |  |  |  |  | 3.47 |  |  |
| Ab13.H (antibody, human IgG1, kappa, N297A, V domains shown) VH: EVQLVESGGGLVQPGGSLRLSCAASGFTVSSGYDICWVRQAPGKGLEWIGCIDTGSGNTYYASSAKGRFTMSRDNSKNTVYLQMNSLRAEDTAVYYCAKGISSIWGQGTLVTVSS VL: DIQMTQSPSTLSASVGDRVTITCQASQTISSDLAWYQQKPGKAPKLLIYAASKLTSGVPSRFSGSGSGTEFTLTISSLQPDDFATYYCQTYYDIIDDGATFGGGTKVEIKR |  |  |  |  |  |  |  | 0.3 |  |
| Ab13 (antibody, human IgG1, kappa, N297A, V domains shown) VH: QQLEESGGGLVKPGGTLTLTCTASGFSFSSGYDICWARQGPGKGLEWIGCIDTGSGNTYYASWAKGRFTMSRTSSTTVTLQVTSLTAADTATYFCAKGISSIWGPGTLVTVSS VL: DIVMTQTPASVSEPVGGTVTIKCQASQTISSDLAWYQQKPGQPPKLLIYAASKLTSGVSSRFKGGGTGTQFTLTISDLECADAATYYCQTYYDIIDDGCTFGGGTEVVVKR |  |  |  |  |  |  |  | 1 |  |
| Ab1 (antibody, V domains shown, Full-length rabbit/human chimeric antibody, HEK-293) VH: QSVKESGGRLVTPGTPLTLTCTVSGFSLSNYDMIWVRQAPGKGLESIGMIYDDGDTYYASWAKGRFTISKTSTTVDLKIISPTTEDTATYFCVKGVSNHWGPGTLVTVSS VL: DVVMTQTPASVEAAVGGTVTIKCQASQSISSYLAWYQQKPGQPPKLLIYSASTLASGVPSRFKGRGSGTEFTLTISDLECADAATYYCQSYDGSSGSSYGVGFGGGTEVVVKR | 2.38 | 0.14 | 101 | 56.4 | 1100 |  | 2.36 |  | 1e+06 |
| Ab12 (antibody, V domains shown) VH: QSVEESGGRLVTPGTPLTLTCTVSGSSLSDYDMIWVRQAPGKGLESIGIIYDDGDTYYATWAKGRFTISKTSTTVDLRIISPTTEDTATYFCVKGVSNMWGPGTLVTVSS VL: DVVMTQTPSSVSAAVGGTVTIKCQASQSIGSSLAWYQQKPGQRPKLLIYAASTLASGVPSRFKGSGSGTEFTLTISDLECADAATYYCQSYDGSSSSSYGVGFGGGTEVVVKR | 1.66 | 0.05 |  |  |  |  | 2.68 |  |  |
| Ab11 (antibody, V domains shown) VH: QSLEESGGRLVTPGTSLTLTCTASGFSLSAYDILWVRQAPGKGLESIGMMYDDGDTYYATWAKGRFIISRTSTTMDLKIISPTTEDTATYFCVKGVSNIWGQGTLVTVSS VL: DIVMTQIPASVEAAVGGTVTIKCQASQSIDSSLAWYQQKPGQPPKLLIYSASTLASGVPSRFKGSGSGTEFTLTIGDLECADAATYYCQSYDGSSSSYYGIGFGGGTEVVVKR | 1.49 | 0.03 | 108 | 49.4 | 4200 |  | 1.53 |  |  |
| Ab10 (antibody, V domains shown) VH: QSVEESGGRLVTPGTPLTLTCTVSGFSLSSADMIWVRQAPGKGLESIGMIYDDGDTYYATWAKGRFTISKTSTTVDLKIISPTTEDTATYFCVKGVSSVWGQGTLVTVSS VL: DVVMTQTPASVEAAVGGTVTINCQASENIYRSLAWYQQKPGQPPKLLIYSASTLASGVPSRFKGSGSGTEFTLTISDLECADAATYYCQSYDGSSSSSYGVGFGGGTEVVVKR | 2.14 | 0.16 | 133 | 66.3 | 5400 |  | 5.98 |  |  |
| Ab3 (antibody, V domains shown) VH: QSLEESGGRLVTPGTPLTLTCTVSGSSLSNFDMIWVRQAPGKGLESIGIIYDFGSTYYASWAKGRFTISRTSSTTVDLKIISPTIEDTATYFCVKGVSNIWGQGTLVTVSS VL: DVVMTQTPASVEAAVGGTVTIKCQASEDISSNLAWYQQKLGQPPKLLIYSASTLASGVPSRFKGSGSGTEFTLAISDLECADAATYYCQSYDGSSSSSYGIGFGGGTEVVVKR | 4.12 | 0.29 | 58.7 | 54.2 | 1100 |  | 7.72 | 0.8 |  |
| Ab2 (antibody, V domains shown) VH: QSVEESGGRLVTPGTPLTLTCTVSGFSLSKYDMIWVRQAPGKGLESIGIIYDDGDTYYASWAKGRFTISQTSTTVDLKIISPTTEDTATYFCVKGVSNIWGQGTLVTVSS VL: DVVMTQTPASVEAAVGGTVTIKCQASQSISNYLAWYQQKTGQPPKLLIYSASTLASGVPSRFKGSGSGTEFTLTISDLECADAATYYCQSYEGSSSSSYGVGFGGGTEVVVKR | 3.62 | 0.25 | 79 | 54.5 | 1100 |  |  | 1.3 |  |

Reference: patent US20260193344A1 (H LUNDBECK A S, published 2026)
